test: soluble on expression in E. coli; label from the status in PepcDB or PDB records

| Sequence | soluble on expression in E. coli |
| --- | --- |
| MGSDKIHHHHHHMRIVFVGTPEFAAEILEHLIKNGFNVVGVVTQPDKPRGRGRKVAPTPVKAVAEKHEVPFIQPESINKKEALEFLRSVRPDVIIVASYGKILGEKVLSLPRLGCYNIHPSLLPKYRGASPIQRVLENGEERTGVTIYKMVKELDAGPIALQKEISVDPFETFDQLEKRLIELSKEMLIEFLEKLKTGNIELKEQDHSRATYAPMIKKEDLIVDFSKDAESVKNKIRAYDSRPGARAFLGNVEVKLFGVTAIDSSGDEPGLINYIDREGAWIGTGDGKVKVRYIQFPGKKKMTFWEAKNGRLIIEGMRFERRYES | not soluble |
| VAVVLDRQGKVQTVNGLFETELSYSQSEIAGRSLSEMSPPELSGDTHQKRALAAIRDGKHFSGTLRLVSKTGARVWLRTVVVPFKNETGGIEQITLYSSVLT | not soluble |
| DMIVRQAGPADAAAMSAVLHPILTGWNSARSGDAETVLTRYIDDPDRLSCAVACEGERILGFQSLKLARAGNVYDLPAGWGIIGTYVAGDAGRRGIGRALFTETLAAARRAGLAHIDATIGADNAQGLPYYSALGFQTWRELDG | not soluble |
| MKRILLSLLAMATLVGCGSKDDNNPTPPQRPDFTKEQQNYLPTKKVKHVTATYVEADYENGSYPSVQYKDFLNPELNQGQKFTVKTMEYFYEYDNAGRITKVTFKREGDSDIVSTLTYSNISVTITSPPPYDGIREPRSIEYGLNSSGNILSLGVYNEKQQLKNSMSAGTFTWENDNLTKISRKVTRNGVVKERGVKFSYNSATNKNKFYLLDHTGDDIRSYQEYFALSIAIIKGAAPKNLPIEATPLEENDSYSSRFERPVSFSYTFDGDEFVKTITEKENKFVPGSLYSYVPNNGNNEIGTYWNELQTLIANIENKTVTNKSYKLISDDGSTRIFEITVPVKVEKDSNGKTINLNVNKVCKFTVSYNNTSATDIRMEATYYADIITNYELNY | not soluble |
| GGSGSDIEAYFERIGYKNSRNKLDLETLTDILEHQIRAVPFENLNMHCGQAMELGLEAIFDHIVRRNRGGWCLQVNQLLYWALTTIGFQTTMLGGYFYIPPVNKYSTGMVHLLLQVTIDGRNYIVDAGSGSSSQMWQPLELISGKDQPQVPCIFCLTEERGIWYLDQIRREQYITNKEFLNSHLLPKKKHQKIYLFTLEPRTIEDFESMNTYLQTSPTSSFITTSFCSLQTPEGVYCLVGFILTYRKFNYKDNTDLVEFKTLTEEEVEEVLKNIFKISLGRNLVPKPGDGSLTI | soluble |
| MGSDKIHHHHHHMATELKTFTDSQFIGKPVLADIEFIPHLEKINDFAATNGLKIFVTSSARPWGVPVGGAIVSPAKMSNHLIGHAIDMNIQIGGKLYTSNELGDFNSLPPPIKAFITTIRNHPVLRWGGDFGDPVHIDDGLNLHNPNLWKDKFPIIQSELTGLTQPGIRAVNSPRLLFLTTPLMKGDDIKVVQEKLIGKGFDLGITGADGFFGQATANAVIKFQDQEDLDPVDGIVGDKTKKALGL | not soluble |
| MALEKLLKVQERLWAPEDLRKKANLQDYAAEYRKSLEDPEGFWGAWARRFHWEKPFEKVLEWTLPEHRWFLGGTTNAVYNALERNVERGLRNKVALLYLAEDGREEKLTYGELLDRVRRLATGLRRLGVGKGDRVVIYMPLTLEGVLAMLATAYIGAIHSVVYAGLGVSALRERILDAQAKLLIAGDVSFRRGKGVDLRSIAEEAIRDLPLKVVWFQRAYKAELAEGHYDFHELLWGNPPEARAEMVDAEHPLFILYTSGSTGKPKGVVHVHGGYMVGTTYHLRTFFDVKDEDVFWATSDIGWIVGHSYIVYAPLLEGITSVLREGAPDHPDPGALWQAVERYRVNVMFTAPTAVRMFMKYGPEWPRKYDLSSLRLLAVAGEPLNPEALKWAYEHLVDGGRRGFVADNWWQTELGGPTLGTPLVLPAKPGFAGVALPGVEAEVVDEEGRPVPPGQGGLLVLKRPFPHMMRTVWGNHERYLRYWQEVPGGVYASGDVASKDEEGYFSVLGRADDVLNVAGHRIGTADVESALVSHPAVAEAAVIGVPDPLKGEAIKAFVVLRLGQTPSEELKEALVQHVRRELGPIATPSEVVFLDKLPKTRSGKILRRLLKAQALGKDPGDLSTLEE | soluble |
| MQNEQLLQEVGLNAYEAAAYLSLLKLGVSEASDIYRDSEVPYGKIYSVLESLAGKGFVEVQASRPKKFRAVDPELALDTFFERRKAEVEREMAFLKSSVEEAKSVLKAVPTQKRKDEFFWTTAITESEIKKFAVSIYSEVKKSVCVLPPVFGISIVFYLLPEITKAIDRGVRIKLMISPRFMALASVLSHQEGEILEKLKKGLDIRLVQNSNSCFGIVDDSIVVLFQPHPTDRDRVLSVVKVRDSGLAKNLKEEFDLLWNAGEKLDLQEELEDKQNPGKN | not soluble |
| GPGSMCSPIADNADMIVPSADTCCPNTVFERVLRCACIVMRVGDDPGYIWTPQRLGAGSFGTVTLAYRHEGDAVWRKTAVKRISLRKETRLSAVLEKVRCTGREVALCRRAGVSPHVVPMYKPWFDCREGVIALPMDAGDFSLEQYAVHCGFRFPPLALLSMCAQCARAVAHLHRRGVVHRDVKPDNFVVNVFDTVGGAGAGGDGDCGEARPPFVRILDFGLACGVEEVEQELKRCVGTPHYMAPETFSHLCDCDVPAACDVWSLGVTLFRLATGVFPVFDQDVTASWPPASASSARLGVPRLRSPWPRVVERCPAPW | not soluble |
| MAFTPFPPRQPTASARLPLTLMTLDDWALATITGADSEKYMQGQVTADVSQMAEDQHLLAAHCDAKGKMWSNLRLFRDGDGFAWIERRSVREPQLTELKKYAVFSKVTIAPDDERVLLGVAGFQARAALANLFSELPSKEKQVVKEGATTLLWFEHPAERFLIVTDEATANMLTDKLRGEAELNNSQQWLALNIEAGFPVIDAANSGQFIPQATNLQALGGISFKKGCYTGQEMVARAKFRGANKRALWLLAGSASRLPEAGEDLELKMGENWRRTGTVLAAVKLEDGQVVVQVVMNNDMEPDSIFRVRDDANTLHIEPLPYSLEELEHHHHHH | not soluble |
| MKKDIGDHLISKLDLQDIAKVLSDELSGSELNTVLLDIFNKRVQQETPSSLLSKYEGNKLVKPALLEDVLEYKEKELRCYKLIAGRGFEPIELSPVAQFGTNSVIATVDQKKVLTSLRNTEVQADPTNTIALHYASLKKKGELDNKTYNYSNISRVIRTQVFNNPNFTPHFTVLALISCGRDTGSFNFEKEELLKHLTTSYEICKSYGVEKIYYEIIPCKGYDSQSPLIMESISYVRKKNSNLEVLVIAPEHDNNYYHGFRIKQQIVIGGNTIEIADGGLLDWTQQLLTNKKERMMTFGLGIQVLYHLTK | soluble |
| QERFVHVHKMITTGTIEEKIDVMLESKQTLNDQIIQSENWITELSTQELEEL | soluble |
| MSLARLEPWAEKLTSDPATCRHLIEEFGSPVNVLHSGSMPRNINELVDAGIQMGVDTRIFFARKANKGLTFVDAVKDTGHGVDVASERELSQVLNRGVPGERIILSAAIKPDRLLALAIENGVIISVDSRDELDRISALVGDRVARVAPRVAPDPAVLPPTRFGERAADWGNRLTEVIPGVDIVGLHVHLHGYAAKDRALALQECCQLVDSLRECGHSPQFIDLGGGVPMSYIESEEDWIRYQSAKSATSAGYAESFTWKDDPLSNTYPFYQTPVRGNWLKDVLSKGVAQMLIDRGLRLHLEPGRSLLDGCGVTLAEVAFVKTRSDGLPLVGLAMNRTQCRTTSDDFLIDPLHITDGDVGEEIEAYLVGAYCIEDELILRRRIRFPRGVKPGDIIGIPNTAGYFMHILESASHQIPLAKNVVWPEGQLDDIDADEGHHHHHH | soluble |
| MKEVRIVFQPGEISVPVAAGTTIMEAMNRSGLGEDFPCGGRGKCGKCRVKVREGREDFTAIDEDHLTAQELAEGVRLACATKINRDMMVEMQSPKKLQHHILIDSAARAFHIHPHLVKVFAEIAQPSLSEHKSDWQRLQESLAGLGCSVHDLQAPLSVLRRLPDTLRESTNRVTTIVYGSQVLGVEQGDTTGTLLGMAFDIGTTTIVGYLLDLNSGRELEVVSTLNPQAQYGGDVISRITFAGKEEKGLDTLHQAVTGAMNRLIGEAVDKAGVSRTQLYGISVAANTTMHHLFLGITPRSIGMSPYVSAINQGLVVAPGELGLEINKAGRVFVLPNIAGFVGADTTAVLLASDLEKSDHVTLILDIGTNGEIVLGSKNRMVACSAAAGPAFEGAQITSGMRGADGAIDHISFDHGLSYTVIGNGRPIGICGSALLDGVAGFVELGMINKRGKFLEPEKLTHPSALKLKDRLIKYEETWAFQLVEAGQTRHGRPILITQNDIRELQLAKGAIAAGVRILQEAMGIECEDIKEVLLAGAFGNYLNPHSACVIGLIPRELESRIKTIGNAAGNGAKIALLSAQEFSRAKDLAGGVSFVELGSYPGFNTIFAQNTYFKLD | soluble |
| MNNSREDQWLQHYEQQNIQEITPCFNAINIASSSGSSLGDGGAAAHEAAGRRSRASRRAIPTTLLNANPSNFRALVQKFTGRSAGGESNRRKGPVTLDFGSPTTISKEAIFPVSSDRSNNNLDHVVNQHVSNEQRHVTWSGTESMMSYQLGEETNSAVYSSGYDDQDLPREYSGNSSYDESLDHMDYYQDFHRETATLEEFMMRDLDL | soluble |
| RNDTECDLCGGDPEKKCHSCSCRVCGGKHEPNMQLLCDECNVAYHIYCLNPPLDKVPEEEYWYCPSCKTD | soluble |
| MGSDKIHHHHHHMQISNEDYEQLKPLLFSLGYRLLGSVTDAEDLVQETFLRAYQAEEREINNKKAYLCKMMTNRCLDVLKSARRKREQYVGPWLPEPLLITSDDPSEAILQKEGLSMAYLRMMEHLTPHERAVFLLREVFTFSYREIASMMEKKEDNCRKLYSRAKEKLSAVKGESLHYENNRSVVDRFIHSFQTEDQGDLLELLSDHVTLYTDGGGKVRAALRPIYTKDHVAAFLFGIAKKRPNDFYVEVKNVNGQPALISYADSKLYNVICFYIVGGQIQDIYIIMNPEKLPSNG | not soluble |
| RSDSIMILSINPKTKKTEIVSIPRDTRAEIVGRGTTEKIAHAYAYGGPNMAVKSLEKLMNVPIDHYATIDMDGLHNMIDSIGGVDVVSNDTFTVDGVRFTKGQQTHVNGDQALKFIRSRKEEGAGGDFGRQQRQQIVLEAMANKIAS | not soluble |
| MGSDKIHHHHHHMTEAHNACCHPSGTAAGHHGAGKASTDMMDAVDRRLLDIIQTGFPIEPRPYAVLGETLGITECEALARVRALRERKVIRRLGANFDSWKLGFRSTLCAAKVPEDRIDAFVAEVNRHVNVTHNYLRNHEYNIWFTCICPSWEQVCSLLDGITERTGIPILNLPATKLYKIRVDFRMD | not soluble |
| MKAIPSNVWATRPTKPFTCFFCPMIVLTEDGSPTILSPHYGEYYHSIHGACRESEHVFVHTGLLHRLESFDPSGTLYLFEVGFGTALNALLTLREQRCRGLSIHYSAIEKFPLERDVYEHLRFSVGMADEDKLLQSLHHAPWGMDCEICPGFTLHKIASDLTDFTFRKPIDLIYFDAFSPEAQPELWSEEIFIRMVAACRSGAVLATYCAKGEIRRRLTRAGFHMERLPGPPGKREILRGTYYLEDRGDSL | not soluble |
| MLYLAELLQGKNALITGAGRGIGRAVAIALAKEGVNVGLLARSEENLKAVAKEVEAEGVKAVIATADVSSYEEVTTAIETLKNGLGSIDILINNAGISKFGKFLELDVADWEKIIQVNLMGVYYATRAALPSMIEQQSGDIINISSTAGQKGAPVTSAYSASKFGVLGLTESLAMEVRKHNIRVTALTPSTVATDMAVDLGLTDGNPDKVMQAEDIAEFIVAQLKLNKRTFIKSAGLWSTNP | not soluble |
